Source: patent US20070098719A1 (GITR, published 2007)

Assays:
[1] = target: T1, human GITR (hGITR), glucocorticoid-induced TNF receptor (UniProt Q9Y5U5 26-241); experiment: SPR
T1 chain: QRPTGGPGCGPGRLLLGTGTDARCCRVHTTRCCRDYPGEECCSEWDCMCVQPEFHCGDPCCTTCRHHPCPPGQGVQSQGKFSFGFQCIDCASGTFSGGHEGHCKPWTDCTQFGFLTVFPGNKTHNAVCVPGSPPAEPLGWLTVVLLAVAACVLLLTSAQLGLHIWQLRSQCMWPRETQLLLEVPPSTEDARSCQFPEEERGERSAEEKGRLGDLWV

[2] = target: T2, human GITR (hGITR), glucocorticoid-induced TNF receptor (human, UniProt Q9Y5U5 26-241); experiment: FACS, L-M (mouse fibroblast) cells transfected with the GITR gene, 50 ul hybridoma supernatant
T2 construct: also called TNFRSF18
T2 sequence: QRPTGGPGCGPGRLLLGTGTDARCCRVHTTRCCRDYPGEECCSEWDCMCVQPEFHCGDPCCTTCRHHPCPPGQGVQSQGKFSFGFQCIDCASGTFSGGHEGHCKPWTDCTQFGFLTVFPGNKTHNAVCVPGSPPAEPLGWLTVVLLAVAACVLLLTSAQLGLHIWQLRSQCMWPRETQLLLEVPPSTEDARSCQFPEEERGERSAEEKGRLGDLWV
Experimental: FIG. 3 depicts a FACS analysis of L-M (mouse fibroblast) cells transfected with the GITR gene that were stained with 50 μl of supernatant fluid from GITR-expressing hybridoma cells. The GITR binding molecule stained GITR-transfected cells but not the untransfected L-M cells.

Kd [1]: 1.1 nM | binding result [2]: binds
B1: 6C8 antibody (antibody, V domains shown)
VH: QVTLKESGPGILKPSQTLSLTCSFSGFSLSTSGMGVGWIRQPSGKGLEWLAHIWWDDDKYYNPSLKSQLTISKDTSRNQVFLKITSVDTADAATYYCARTRRYFPFAYWGQGTLVTVSS
VL: DIVMTQSQKFMSTSVGDRVSVTCKASQNVGTNVAWYQQKPGQSPKALIYSASYRYSGVPDRFTGSGSGTDFTLTINNVHSEDLAEYFCQQYNTDPLTFGAGTKLEIK
notes: also called anti-GITR
